This is an account of results in paper PMC8786643 (iScience, 2022).

Data set [1] has as its target T1, mouse Glut12/Slc2a12 (Mus musculus, UniProt Q8BFW9).
T1 construct: full-length wild-type ORF in pEGFP-N1, EGFP-tagged; transient expression in HEK293 cells
T1 sequence (Q8BFW9 1-622): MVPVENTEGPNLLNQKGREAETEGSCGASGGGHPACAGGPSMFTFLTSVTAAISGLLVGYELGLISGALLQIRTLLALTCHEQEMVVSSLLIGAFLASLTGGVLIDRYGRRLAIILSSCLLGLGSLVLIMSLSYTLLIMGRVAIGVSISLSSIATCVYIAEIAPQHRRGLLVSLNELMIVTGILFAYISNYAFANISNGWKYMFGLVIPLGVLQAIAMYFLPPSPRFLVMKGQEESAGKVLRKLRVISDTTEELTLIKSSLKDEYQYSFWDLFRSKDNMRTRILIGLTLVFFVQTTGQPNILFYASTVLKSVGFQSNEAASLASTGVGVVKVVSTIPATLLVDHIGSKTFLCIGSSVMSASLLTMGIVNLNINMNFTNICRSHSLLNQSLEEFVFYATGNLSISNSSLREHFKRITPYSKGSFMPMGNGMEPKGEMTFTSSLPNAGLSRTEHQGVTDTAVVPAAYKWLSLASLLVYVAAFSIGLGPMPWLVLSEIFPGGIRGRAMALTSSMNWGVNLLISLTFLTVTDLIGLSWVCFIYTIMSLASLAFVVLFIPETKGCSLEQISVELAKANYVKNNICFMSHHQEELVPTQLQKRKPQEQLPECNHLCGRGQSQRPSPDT
In words: [[…]-14C]-urate uptake in transiently transfected HEK293 cells. To be noted: 10 µM urate, Krebs-Ringer buffer, pH 5.4, 10 min; labelled compound. The data set is classed as cell-based.

Substrate in data set [2]: O=C1O[C@H]([C@@H](O)CO)C(O)=C1O
In words: cells, lysate or membranes. To be noted: Krebs-Ringer buffer, pH 5.4, 37 °C, labelled compound.

One may read the Km as the substrate concentration at which the rate is half of its maximum.

In the case of `O=c1[nH]c(=O)c2[nH]c(=O)[nH]c2[nH]1` [urate], in data set [1], the “[8-14C]-urate uptake in transiently transfected HEK293 cells” value was “cell-based urate uptake assays using human GLUT12- and mouse Glut12-expressing HEK293 cells were conducted”.

B1: human GLUT12/SLC2A12 (Homo sapiens) (protein)
chain: MVPVENTEGPSLLNQKGTAVETEGSGSRHPPWARGCGMFTFLSSVTAAVSGLLVGYELGIISGALLQIKTLLALSCHEQEMVVSSLVIGALLASLTGGVLIDRYGRRTAIILSSCLLGLGSLVLILSLSYTVLIVGRIAIGVSISLSSIATCVYIAEIAPQHRRGLLVSLNELMIVIGILSAYISNYAFANVFHGWKYMFGLVIPLGVLQAIAMYFLPPSPRFLVMKGQEGAASKVLGRLRALSDTTEELTVIKSSLKDEYQYSFWDLFRSKDNMRTRIMIGLTLVFFVQITGQPNILFYASTVLKSVGFQSNEAASLASTGVGVVKVISTIPATLLVDHVGSKTFLCIGSSVMAASLVTMGIVNLNIHMNFTHICRSHNSINQSLDESVIYGPGNLSTNNNTLRDHFKGISSHSRSSLMPLRNDVDKRGETTSASLLNAGLSHTEYQIVTDPGDVPAFLKWLSLASLLVYVAAFSIGLGPMPWLVLSEIFPGGIRGRAMALTSSMNWGINLLISLTFLTVTDLIGLPWVCFIYTIMSLASLLFVVMFIPETKGCSLEQISMELAKVNYVKNNICFMSHHQEELVPKQPQKRKPQEQLLECNKLCGRGQSRQLSPET
Consider B1, for which the Km in data set [2] (5 min uptake) worked out at 846 µM.

B2: mouse Glut12/Slc2a12 (Mus musculus) (protein)
chain: T1 sequence (Q8BFW9 1-622)
B2: in data set [2], the Km amounted to 1245 µM.
